According to US7173007 (University of California, dated 2007):

Target: the molecule itself
Test: SDS-PAGE / Western blot, self-association
Experimental: SDS-PAGE and immunoblotting. The purity of cathelin-like or hCAP18/LL-37 protein was first confirmed by SDS-PAGE followed by Coomassie blue and silver staining. For Western blot, protein was separated by SDS-PAGE and was then transferred to nitrocellulose membranes using the Bio-Rad system. Membranes were blocked for 1 h at room temperature with 0.1% low fat milk in 50 mM Tris-HCl, pH 7.5, 150 mM NaCl, 0.2% Tween-20, and were probed overnight at […] with chicken polyclonal anticathelin-like antibodies (1:15,000) to detect cathelin-like protein or with rabbit anti-LL-37 antibodies (1:6000) to detect full-length hCAP18/LL-37, followed by extensive washing. Immunoreactive materials were detected by enhanced chemiluminescence using horseradish peroxidase conjugated antichicken antibodies (1:20,000) or horseradish peroxidase conjugated antirabbit antibodies (1:5000).

B1: His-tagged cathelin-like fusion protein (before enterokinase digestion), approximately 16 kDa (other, not shown: small tags and cut ends)
chain: QVLSYKEAVLRAIDGINQRSSDANLYRLLDLDPRPTMDGDPDTPKPVSFTVKETVCPRTTQQSPEDCDFKKDGLVKRCMGTVTLNQARGSFDISCDKDNKR
notes: also called His-tagged cathelin-like protein before cleavage; cathelin-like protein before digestion with enterokinase
- binding result: binds
